In this assay the target is Human CXCR7 (human) (UniProt P25106). The experiment in a line: competition FACS, 4 nM biotinylated SDF-1 on HEK-hCXCR7 cells.

The text below walks through data of patent US20140227270A1.

Chain of Human CXCR7 (human) (P25106 whole entry): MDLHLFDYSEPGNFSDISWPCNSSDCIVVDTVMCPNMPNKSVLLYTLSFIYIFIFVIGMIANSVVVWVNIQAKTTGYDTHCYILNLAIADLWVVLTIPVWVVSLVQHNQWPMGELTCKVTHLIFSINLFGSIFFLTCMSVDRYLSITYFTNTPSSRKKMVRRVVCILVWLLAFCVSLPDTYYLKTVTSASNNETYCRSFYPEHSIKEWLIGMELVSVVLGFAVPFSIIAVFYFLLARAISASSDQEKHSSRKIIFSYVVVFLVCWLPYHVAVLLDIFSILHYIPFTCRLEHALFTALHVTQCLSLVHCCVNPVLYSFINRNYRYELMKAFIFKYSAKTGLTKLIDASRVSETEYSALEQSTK

Substance Mab 8F11 (Biolegend) (antibody) had a % competition relative to unlabelled SDF-1 of more than 95%.
